Drawing on publication PMC3094553, this text covers stoichiometry N for one substance.

The target of this assay is PF0699 (conserved hypothetical protein) (Pyrococcus furiosus) (UniProt Q8U2X9). The experiment in a line: SAXS.

Turning to “PF0699 (conserved hypothetical protein) (from UniProt Q8U2X9 1-139) (natural protein)”, the stoichiometry N (commonly the number of molecules, sites or subunits per partner or assembly) was determined as 2.
